Laboratory results published in patent US20140045930A1, “ASSAY FOR ARGINYL HYDROXYLASE ACTIVITY” (priority 2011, published 2014).

Tests used:
Type in all cases: biochemical
[1] = biological target: T1, YcfD (Escherichia coli, UniProt P27431)
T1 construct: hexa-His (N); made in house; host or cells: E. coli BL21 (DE3), pET28a
T1 sequence (P27431 1-373): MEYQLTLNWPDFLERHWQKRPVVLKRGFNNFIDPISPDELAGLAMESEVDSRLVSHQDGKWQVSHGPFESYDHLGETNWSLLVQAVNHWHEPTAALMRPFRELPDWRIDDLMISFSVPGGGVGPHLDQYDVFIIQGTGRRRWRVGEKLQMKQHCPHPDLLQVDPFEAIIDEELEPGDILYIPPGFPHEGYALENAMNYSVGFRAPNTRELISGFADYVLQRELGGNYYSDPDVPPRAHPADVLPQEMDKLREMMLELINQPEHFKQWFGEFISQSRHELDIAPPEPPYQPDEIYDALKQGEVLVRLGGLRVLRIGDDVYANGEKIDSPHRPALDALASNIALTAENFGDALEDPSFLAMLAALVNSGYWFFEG

[2] = biological target: T1, YcfD; experiment: NMR analyses of YcfD-catalysed hydroxylation; details: for hydroxylation by YcfD observed by 1H NMR: 1H NMR analyses (data not shown)
Source text: NMR-analyses used a Bruker AVIII 700 system equipped with an inverse TCI cryoprobe optimised for ^1H observation and running TOPSPIN 2 software. Chemical shifts are reported in ppm relative to D2O (δH 4.72); the deuterium signal was used as an internal lock signal and the HDO signal was reduced by presaturation where necessary.
(§1) Using a mass spectrometric (MS) based assay, we then screened YcfD with 21 known peptide fragments of substrates for three human 2OG dependent hydroxylases (PHD2, FIH, JMJD6), that encompasses known hydroxylation sites, including the HIF-1α N- and C-terminal oxygen dependent degradation domain (prolyl-hydroxylation), the HIF-1α C-terminal transcriptional activation domain (asparaginyl hydroxylation), ankyrin repeat domain peptides (asparaginyl hydroxylation), splicing regulatory protein fragments (lysyl5-hydroxylation), and collagen proyl-hyroxylase peptides. […] We then screened other available peptides including a set originally prepared for candidate hydroxylases from Pseudomonas spp., that are potential homologues of the human HIF prolyl-hydroxylases. […] MS-fragmentation analyses, unexpectedly, implied that the predicted hydroxylation occurred at the arginine-residue (Arg-12) at the -3position relative to the C-terminus of the substrate peptide (data not shown). This proposal was supported by ‘alanine scanning’ analyses hydroxylation was assessed for peptides in which substitution of alanine at every position in turn of RLLPAVSEATIRRL. […] We then employed NMR to investigate the regiochemistry of arginine-hydroxylation, employing an octameric peptide (AVSEATIR) containing a single arginine residue to simplify the analyses. This octameric peptide is set out in SEQ ID NO: 12. […] This contrasts with nitric oxide synthase which catalyses hydroxylation of L-arginine to give citrulline and nitric oxide via an Nω-hydroxyarginine intermediate.

[3] = biological target: T1, YcfD; experiment: Hydroxylation assay by MALDI-TOF MS (peptide substrates, +16 Da mass shift); details: for % hydroxylation (+16 Da): peptide substrate incubated with YcfD, +16Da mass shift on products
Description: Assay mixtures (final volume 100 μL in 50 mM Tris-HCl, pH 7.5) contained: enzyme (10 μM), substrate (100 μM), 2OG (160 μM), Fe(II) (200 μM) and ascorbate (2 mM). The reaction mixture was incubated at 37° C. for 30 minutes. The reaction mixture was then placed on ice, 10 μl of 1% formic acid was added to quench the reaction, and the mixture was centrifuged to separate any insoluble material that precipitated during quenching. The resultant soluble mixture (1 μl) and α-cyano-4-hydroxycinnamic acid (CHCA) matrix solution (1 μl) (LaserBio Labs) were double spotted onto a 96 well MALDI sample plate, and when dry analysed using MALDI-TOF MS on a Waters Micromass™ MALDI micro MX™ mass spectrometer in negative ion reflectron mode.
as §1
Based on the identified peptide substrates for YcfD, we searched the E. coli genome for potential substrates and made a set of peptides. Screening for YcfD activity identified a number of further potential substrate sequences as observed by a +16Da mass shift on products. Examples of the peptide substrates are set out in the Table below.

Molecule | % hydroxylation (+16 Da) [3] [%] | also measured
O=C(O)c1c[nH]c2c(ccc3cccnc32)c1=O [FG0041] |  | inhibition of YcfD argininyl hydroxylase activity [1]: inhibitory
O=C(O)CNC(=O)c1nc(Cl)c2ccccc2c1O [FG2216] |  | inhibition of YcfD argininyl hydroxylase activity [1]: inhibitory
N=C(N)NCCC[C@H](N)C(=O)O [L-arginine] |  | hydroxylation by YcfD observed by 1H NMR [2]: No hydroxylation
O=C(O)CNC(=O)C(=O)O [N-oxalylglycine] |  | inhibition of YcfD argininyl hydroxylase activity [1]: inhibitory
CC(=O)N[C@@H](CCCNC(=N)N)C(=O)O [N-α-acetyl-L-arginine] |  | hydroxylation by YcfD observed by 1H NMR [2]: No hydroxylation
O=C(O)/C=C/C(=O)O [fumarate] |  | inhibition of YcfD argininyl hydroxylase activity [1]: inhibitory
O=c1c(-c2ccc(O)cc2)coc2cc(O)cc(O)c12 [genistein] |  | inhibition of YcfD argininyl hydroxylase activity [1]: inhibitory
O=C(O)c1ccnc(C(=O)O)c1 [pyridine-2,4-dicarboxylic acid] |  | inhibition of YcfD argininyl hydroxylase activity [1]: inhibitory
O=C(O)c1ccc(C(=O)O)nc1 [pyridine-2,5-dicarboxylic acid] |  | enhancement of YcfD activity [1]: Enhancers of YcfD activity
O=C(O)c1cccc(C(=O)O)n1 [pyridine-2,6-dicarboxylic acid] |  | enhancement of YcfD activity [1]: Enhancers of YcfD activity
O=C(O)CCC(=O)O [succinate] |  | inhibition of YcfD argininyl hydroxylase activity [1]: inhibitory
AQYPQEVITTVRG [synthetic peptide, protein origin PhoP] | 60 | 
ATVAKCVEALKERFQASLRD [synthetic peptide, protein origin PheT] | 40 | 
AVSEATIR [octameric peptide containing a single arginine residue] |  | position of hydroxylation ([2]; 2D-NMR after incubation with YcfD and HPLC purification): at C-3 of the hydroxylated arginine-residue
ELNREQKWQMMLSKSMRR [synthetic peptide, protein origin CaiF] | 40 | 
KHVQALDLSMRFR [synthetic peptide, protein origin Nicotinate-nucleotide diphosphorylase] | 30 | 
KLLRLFFPLSLRV [synthetic peptide, protein origin PhoQ] | 60 | 
KTPLAVLQSTLRS [synthetic peptide, protein origin PhoQ] | 95 | 
KTPLAVLQSTLRSLR [synthetic peptide, protein origin PhoQ] | 40 | 
KWQMMLSKSMRR [synthetic peptide, protein origin CaiF] | 30 | 
LAVLQSTLRSLRS [synthetic peptide, protein origin PhoQ] | 60 | 
LLRLFFPLSLRV [synthetic peptide, protein origin PhoQ] | 50 | 
LTELNREQKWQMMLSKSMRR [synthetic peptide, protein origin CaiF] | 40 | 
LTHSLKTPLAVLQSTLRS [synthetic peptide, protein origin PhoQ] | 90 | 
NTHRGMGYSLRGL [synthetic peptide, protein origin CreB] | 30 | 
RLLPAVSEATIRRL [14-residue synthetic peptide originally prepared for candidate hydroxylases from Pseudomonas spp; YcfD substrate] |  | hydroxylation by YcfD (+16Da mass shift) ([3]; MS based assay, Fe(II) and 2OG dependent): gave a +16Da mass shift
VAKCVEALKERFQASLRD [synthetic peptide, protein origin PheT] | 50 | 
VEALKERFQASLRD [synthetic peptide, protein origin Phenylalanyl-tRNA synthetase] | 40 | 
